Tests used:
[1] = molecular target: Aβ (1-40), beta-amyloid protein of Alzheimer's disease (UniProt P05067); assay: cell-based or functional assay
[2] = molecular target: Aβ (1-40), beta-amyloid protein of Alzheimer's disease (UniProt P05067); assay: solid phase binding immunoassay, Aβ (1-40) on microtiter wells, laminin in solution, anti-laminin detection, one-site fit

Sequence of Aβ (1-40), beta-amyloid protein of Alzheimer's disease (P05067 672-711 limits assumed): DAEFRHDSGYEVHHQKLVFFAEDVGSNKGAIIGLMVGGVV

Thioflavin T fluorescence (Aβ (1-40) amyloid fibril formation), 25 µM Aβ with 100 nM laminin, 1 week [1]: 27.1 fold lower
Thioflavin T fluorescence (Aβ (1-40) amyloid fibril formation), 25 µM Aβ with 100 nM laminin, 1 hour [1]: 2.9 fold lower
Thioflavin T fluorescence (Aβ (1-40) amyloid fibril formation), 25 µM Aβ with 100 nM laminin, 1 day [1]: 4.6 fold lower
Thioflavin T fluorescence (Aβ (1-40) amyloid fibril formation), 25 µM Aβ with 100 nM laminin, 3 days [1]: 30.6 fold lower
Thioflavin T fluorescence (Aβ fibrillogenesis), second study, 25 µM Aβ with 100 nM laminin, 1 week (fold decrease) [1]: 21
Thioflavin T fluorescence (Aβ fibrillogenesis), second study, 25 µM Aβ with 100 nM laminin, 1 day (fold decrease) [1]: 9
Thioflavin T fluorescence (Aβ fibrillogenesis), second study, 25 µM Aβ with 100 nM laminin, 3 days (fold decrease) [1]: 9
dissolution of pre-formed Aβ amyloid fibrils (Thioflavin T fluorometry, 4 days), 16 nM laminin [1]: 25%
dissolution of pre-formed Aβ amyloid fibrils (Thioflavin T fluorometry, 4 days), 31 nM laminin [1]: 28%
dissolution of pre-formed Aβ amyloid fibrils (Thioflavin T fluorometry, 4 days), 63 nM laminin [1]: 39%
dissolution of pre-formed Aβ amyloid fibrils (Thioflavin T fluorometry, 4 days), 125 nM laminin [1]: 41%
Kd [2]: 2.7 nM
Substance: Engelbreth-Holm-Swarm (EHS) mouse tumor laminin, P02468 34-1607
